This note sets out measurements from US20220056104A1 (Janssen / Centocor, published 2022).

In general, EC50 refers to the concentration giving half of the maximal effect.

The target of assay [1] is T1, Recombinant DR3-Fc (R&D Systems, cat. #943-D3) (UniProt Q93038 25-199, limits assumed).
T1 construct: dimeric MW~92 kDa; also called DR3 receptor; Fc-DR3; not shown: Fc part of the bought fusion
T1 sequence (looked up): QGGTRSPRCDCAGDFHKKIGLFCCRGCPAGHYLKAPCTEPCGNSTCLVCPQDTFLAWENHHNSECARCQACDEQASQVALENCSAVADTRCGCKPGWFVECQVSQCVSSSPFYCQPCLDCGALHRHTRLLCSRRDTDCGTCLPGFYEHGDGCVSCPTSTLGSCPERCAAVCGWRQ
The assay is described as follows: ELISA, DR3-Fc immobilized. As to the method:
All ELISA-based measurements were collected in triplicate, and error values report the standard error between measurements. Recombinant DR3-Fc (R&D Systems, cat. #943-D3), dimeric MW˜92 kDa, was non-specifically immobilized onto plates (Nunc maxisorp, cat. #436110) in 100 μL DR3-Fc, diluted to 10 μg/mL onto a 96-well White Maxisorp plate (Nunc, cat #436110) (O/N, 4° C.). Plates were block for 1 hour at room temperature with 250 μl/well of casein buffer and blocking buffer was removed. 50 μL of TL1A variants were diluted in StartingBlock PBS (Thermo Fisher Scientific), at 25 μg/mL, diluting 3× over each well, according to the plate map description for 20160623) per well on a 96-well White Maxisorp plate (Nunc, cat #: 436110) (overnight at 4° C.).
Plates were washed three times with TBST. 100 μl/well polyclonal rabbit anti-human TL1A-biotin antibody (diluted 1:1000 in Starting Block PBS) was added and plates were incubated for 1 hour at room temperature with shaking at 150 rpm. TL1A-biotin antibody was removed and 100 μl/well streptavidin-HRP conjugate (diluted 1:10,000 in Starting Block PBS) was added to plates. Plates were incubated for 1 hour at room temperature with shaking at 150 rpm. Plates were washed three times with TBST. 100 μl/well POD Chemiluminescence substrate (Roche, cat #: 11582950001) was added immediately prior to reading plate luminescence using a Molecular Devices M5 plate reader with a delay setting of 100 ms.
Variants of TL1A were generated and tested for binding to DR3 and DcR3 by ELISA as described.
(In general: In an ELISA, binding on a coated surface is turned into a signal by an enzyme label.)

The target in a further assay is T2, DcR3 (UniProt O95407 30-300, limits assumed).
T2 construct: the construct is not described; also called decoy receptor DcR3; TNFRSF6B
T2 sequence (looked up): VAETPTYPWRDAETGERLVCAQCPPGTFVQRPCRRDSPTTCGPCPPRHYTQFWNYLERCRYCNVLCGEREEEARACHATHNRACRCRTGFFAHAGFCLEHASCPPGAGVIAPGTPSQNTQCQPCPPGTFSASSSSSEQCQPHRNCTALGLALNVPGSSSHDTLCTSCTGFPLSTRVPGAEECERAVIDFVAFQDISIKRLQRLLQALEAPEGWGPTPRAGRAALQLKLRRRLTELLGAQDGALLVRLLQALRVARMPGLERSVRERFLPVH
The assay is described as follows: ELISA, DcR3.

B1: TL1W44 (His-TEV-TL1A P189K) (ligand)
chain: HHHHHHENLYFQGLKGQEFAPSHQQVYAPLRADGDKPRAHLTVVRQTPTQHFKNQFPALHWEHELGLAFTKNRMNYTNKFLLIPESGDYFIYSQVTFRGMTSECSEIRQAGRPNKPDSITVVITKVTDSYKEPTQLLMGTKSVCEVGSNWFQPIYLGAMFSLQEGDKLMVNVSDISLVDYTKEDKTFFGAFLL
notes: also called TL1W44 (P189K)
Take B1: in assay [1], the EC50 is 168 nM and the “Rel EC50” value is 6.4 ratio (head: nM). In the assay with DcR3, the response was half-maximal at 59.1 nM (EC50) and the “Rel EC50” value was 12.8 ratio (head: nM).

B2: TL1W81 (His-TEV-TL1A K111S) (ligand)
chain: HHHHHHENLYFQGLKGQEFAPSHQQVYAPLRADGDKPRAHLTVVRQTPTQHFSNQFPALHWEHELGLAFTKNRMNYTNKFLLIPESGDYFIYSQVTFRGMTSECSEIRQAGRPNKPDSITVVITKVTDSYPEPTQLLMGTKSVCEVGSNWFQPIYLGAMFSLQEGDKLMVNVSDISLVDYTKEDKTFFGAFLL
notes: also called TL1W81 (K111S)
Take B2: the values for the EC50 (in assay [1]; with DcR3) were 34.4 nM and 50.9 nM, respectively. Besides, the “Rel EC50” value in assay [1] was 1.3 ratio (head: nM); in the assay with DcR3, 11.1 ratio (head: nM).

B3: TL1W96 (His-TEV-TL1A R170E) (ligand)
chain: HHHHHHENLYFQGLKGQEFAPSHQQVYAPLRADGDKPRAHLTVVRQTPTQHFKNQFPALHWEHELGLAFTKNRMNYTNKFLLIPESGDYFIYSQVTFRGMTSECSEIRQAGEPNKPDSITVVITKVTDSYPEPTQLLMGTKSVCEVGSNWFQPIYLGAMFSLQEGDKLMVNVSDISLVDYTKEDKTFFGAFLL
notes: also called TL1W96 (R170E)
Consider B3, for which, in assay [1], the EC50 worked out at 87 nM and the “Rel EC50” value was 3.3 ratio (head: nM). Moreover, in the assay with DcR3, a half-maximal response (EC50) required 16.4 nM and the “Rel EC50” value is 3.6 ratio (head: nM).

B4: TL1W47 (His-TEV-TL1A E241A) (ligand)
chain: HHHHHHENLYFQGLKGQEFAPSHQQVYAPLRADGDKPRAHLTVVRQTPTQHFKNQFPALHWEHELGLAFTKNRMNYTNKFLLIPESGDYFIYSQVTFRGMTSECSEIRQAGRPNKPDSITVVITKVTDSYPEPTQLLMGTKSVCEVGSNWFQPIYLGAMFSLQEGDKLMVNVSDISLVDYTKADKTFFGAFLL
notes: also called TL1W47 (E241A)
With B4, in assay [1], the EC50 was 260 nM and the “Rel EC50” value is 9.9 ratio (head: nM). Besides, in the assay with DcR3, the EC50 was 1310 nM and the “Rel EC50” value was 285 ratio (head: nM).

B5: TL1W78 (His-TEV-TL1A R103H) (ligand)
chain: HHHHHHENLYFQGLKGQEFAPSHQQVYAPLRADGDKPRAHLTVVHQTPTQHFKNQFPALHWEHELGLAFTKNRMNYTNKFLLIPESGDYFIYSQVTFRGMTSECSEIRQAGRPNKPDSITVVITKVTDSYPEPTQLLMGTKSVCEVGSNWFQPIYLGAMFSLQEGDKLMVNVSDISLVDYTKEDKTFFGAFLL
notes: also called TL1W78 (R103H)
Take B5: in assay [1], the concentration giving a half-maximal response (EC50) came to 77.2 nM and the “Rel EC50” value was 2.9 ratio (head: nM). Moreover, in the assay with DcR3, the EC50 came to 8.1 nM and the “Rel EC50” value was 1.8 ratio (head: nM).

B6: TL1W97 (His-TEV-TL1A K173S) (ligand)
chain: HHHHHHENLYFQGLKGQEFAPSHQQVYAPLRADGDKPRAHLTVVRQTPTQHFKNQFPALHWEHELGLAFTKNRMNYTNKFLLIPESGDYFIYSQVTFRGMTSECSEIRQAGRPNSPDSITVVITKVTDSYPEPTQLLMGTKSVCEVGSNWFQPIYLGAMFSLQEGDKLMVNVSDISLVDYTKEDKTFFGAFLL
notes: also called TL1W97 (K173S)
B6: in assay [1], the EC50 stood at 131 nM and the “Rel EC50” value is 5 ratio (head: nM). In the assay with DcR3, the midpoint of the response, the EC50, lay at 6.7 nM and the “Rel EC50” value was 1.5 ratio (head: nM).

B7: TL1W99 (His-TEV-TL1A S176A) (ligand)
chain: HHHHHHENLYFQGLKGQEFAPSHQQVYAPLRADGDKPRAHLTVVRQTPTQHFKNQFPALHWEHELGLAFTKNRMNYTNKFLLIPESGDYFIYSQVTFRGMTSECSEIRQAGRPNKPDAITVVITKVTDSYPEPTQLLMGTKSVCEVGSNWFQPIYLGAMFSLQEGDKLMVNVSDISLVDYTKEDKTFFGAFLL
notes: also called TL1W99 (S176A)
With B7, in assay [1], the EC50 was 34.8 nM and the “Rel EC50” value is 1.3 ratio (head: nM). Besides, in the assay with DcR3, the midpoint of the response, the EC50, lay at 11.5 nM and the “Rel EC50” value is 2.5 ratio (head: nM).

B8: TL1W85 (His-TEV-TL1A G124S) (ligand)
chain: HHHHHHENLYFQGLKGQEFAPSHQQVYAPLRADGDKPRAHLTVVRQTPTQHFKNQFPALHWEHELSLAFTKNRMNYTNKFLLIPESGDYFIYSQVTFRGMTSECSEIRQAGRPNKPDSITVVITKVTDSYPEPTQLLMGTKSVCEVGSNWFQPIYLGAMFSLQEGDKLMVNVSDISLVDYTKEDKTFFGAFLL
notes: also called TL1W85 (G124S)
B8: the EC50 in assay [1] stood at 296 nM; with DcR3, 57.1 nM. The results for the “Rel EC50” value (in assay [1]; with DcR3) were 11.3 ratio (head: nM) and 12.4 ratio (head: nM), respectively.

B9: TL1W98 (His-TEV-TL1A K173R) (ligand)
chain: HHHHHHENLYFQGLKGQEFAPSHQQVYAPLRADGDKPRAHLTVVRQTPTQHFKNQFPALHWEHELGLAFTKNRMNYTNKFLLIPESGDYFIYSQVTFRGMTSECSEIRQAGRPNRPDSITVVITKVTDSYPEPTQLLMGTKSVCEVGSNWFQPIYLGAMFSLQEGDKLMVNVSDISLVDYTKEDKTFFGAFLL
notes: also called TL1W98 (K173R)
Consider B9, for which, in assay [1], the EC50 stood at 2050 nM and the “Rel EC50” value was 78.4 ratio (head: nM). Further, in the assay with DcR3, the EC50 was 27.8 nM and the “Rel EC50” value is 6 ratio (head: nM).

B10: TL1W94 (His-TEV-TL1A M158E) (ligand)
chain: HHHHHHENLYFQGLKGQEFAPSHQQVYAPLRADGDKPRAHLTVVRQTPTQHFKNQFPALHWEHELGLAFTKNRMNYTNKFLLIPESGDYFIYSQVTFRGETSECSEIRQAGRPNKPDSITVVITKVTDSYPEPTQLLMGTKSVCEVGSNWFQPIYLGAMFSLQEGDKLMVNVSDISLVDYTKEDKTFFGAFLL
notes: also called TL1W94 (M158E)
For the molecule B10, in assay [1], the EC50 is 58.7 nM and the “Rel EC50” value is 2.2 ratio (head: nM). Also, in the assay with DcR3, it took 18.7 nM to reach a half-maximal effect (EC50) and the “Rel EC50” value is 4.1 ratio (head: nM).

B11: TL1W79 (His-TEV-TL1A R103E) (ligand)
chain: HHHHHHENLYFQGLKGQEFAPSHQQVYAPLRADGDKPRAHLTVVEQTPTQHFKNQFPALHWEHELGLAFTKNRMNYTNKFLLIPESGDYFIYSQVTFRGMTSECSEIRQAGRPNKPDSITVVITKVTDSYPEPTQLLMGTKSVCEVGSNWFQPIYLGAMFSLQEGDKLMVNVSDISLVDYTKEDKTFFGAFLL
notes: also called TL1W79 (R103E)
Take B11: in assay [1], the EC50 stood at 204 nM and the “Rel EC50” value was 7.8 ratio (head: nM). Also, in the assay with DcR3, the EC50 turned out to be 7.1 nM and the “Rel EC50” value was 1.5 ratio (head: nM).

B12: TL1W90 (His-TEV-TL1A R156K) (ligand)
chain: HHHHHHENLYFQGLKGQEFAPSHQQVYAPLRADGDKPRAHLTVVRQTPTQHFKNQFPALHWEHELGLAFTKNRMNYTNKFLLIPESGDYFIYSQVTFKGMTSECSEIRQAGRPNKPDSITVVITKVTDSYPEPTQLLMGTKSVCEVGSNWFQPIYLGAMFSLQEGDKLMVNVSDISLVDYTKEDKTFFGAFLL
notes: also called TL1W90 (R156K)
B12: in assay [1], the EC50 came to 188 nM and the “Rel EC50” value is 7.2 ratio (head: nM). For the same molecule, in the assay with DcR3, the EC50 worked out at 11 nM and the “Rel EC50” value was 2.4 ratio (head: nM).

B13: TL1W93 (His-TEV-TL1A M158K) (ligand)
chain: HHHHHHENLYFQGLKGQEFAPSHQQVYAPLRADGDKPRAHLTVVRQTPTQHFKNQFPALHWEHELGLAFTKNRMNYTNKFLLIPESGDYFIYSQVTFRGKTSECSEIRQAGRPNKPDSITVVITKVTDSYPEPTQLLMGTKSVCEVGSNWFQPIYLGAMFSLQEGDKLMVNVSDISLVDYTKEDKTFFGAFLL
notes: also called TL1W93 (M158K)
With B13, in assay [1], the EC50 came out at 22.5 nM and the “Rel EC50” value is 0.9 ratio (head: nM). In the assay with DcR3, it took 55.9 nM to reach a half-maximal effect (EC50) and the “Rel EC50” value was 12.1 ratio (head: nM).

B14: TL1W84 (His-TEV-TL1A E120H) (ligand)
chain: HHHHHHENLYFQGLKGQEFAPSHQQVYAPLRADGDKPRAHLTVVRQTPTQHFKNQFPALHWHHELGLAFTKNRMNYTNKFLLIPESGDYFIYSQVTFRGMTSECSEIRQAGRPNKPDSITVVITKVTDSYPEPTQLLMGTKSVCEVGSNWFQPIYLGAMFSLQEGDKLMVNVSDISLVDYTKEDKTFFGAFLL
notes: also called TL1W84 (E120H)
For the molecule B14, in assay [1], the EC50 was 182 nM and the “Rel EC50” value is 7 ratio (head: nM). Also, in the assay with DcR3, the EC50 was 55.7 nM and the “Rel EC50” value was 12.1 ratio (head: nM).

B15: TL1W82 (His-TEV-TL1A K111E) (ligand)
chain: HHHHHHENLYFQGLKGQEFAPSHQQVYAPLRADGDKPRAHLTVVRQTPTQHFENQFPALHWEHELGLAFTKNRMNYTNKFLLIPESGDYFIYSQVTFRGMTSECSEIRQAGRPNKPDSITVVITKVTDSYPEPTQLLMGTKSVCEVGSNWFQPIYLGAMFSLQEGDKLMVNVSDISLVDYTKEDKTFFGAFLL
notes: also called TL1W82 (K111E)
B15: the results for the EC50 (in assay [1]; with DcR3) were 25.8 nM and 10.6 nM, respectively. Also, the “Rel EC50” value was 1 ratio (head: nM) in assay [1] and 2.3 ratio (head: nM) with DcR3.
